Target: Trypsin-activated Cry1F toxin from Bacillus thuringiensis (Bacillus thuringiensis, UniProt Q03746 1-1174)
Test: SPR; Biacore 8K; activated Cry1F immobilised on a CM5 chip (10 mM sodium acetate pH 4.0); analytes without His tag in 10 mM HEPES, 150 mM NaCl, 3 mM EDTA, 0.005% Tween-20, pH 7.4; 30 uL/min, association 120 s, dissociation 280 s; 1:1 binding model
Conditions: both partners purified

Trypsin-activated Cry1F toxin from Bacillus thuringiensis, sequence (Q03746 28-612 limits assumed): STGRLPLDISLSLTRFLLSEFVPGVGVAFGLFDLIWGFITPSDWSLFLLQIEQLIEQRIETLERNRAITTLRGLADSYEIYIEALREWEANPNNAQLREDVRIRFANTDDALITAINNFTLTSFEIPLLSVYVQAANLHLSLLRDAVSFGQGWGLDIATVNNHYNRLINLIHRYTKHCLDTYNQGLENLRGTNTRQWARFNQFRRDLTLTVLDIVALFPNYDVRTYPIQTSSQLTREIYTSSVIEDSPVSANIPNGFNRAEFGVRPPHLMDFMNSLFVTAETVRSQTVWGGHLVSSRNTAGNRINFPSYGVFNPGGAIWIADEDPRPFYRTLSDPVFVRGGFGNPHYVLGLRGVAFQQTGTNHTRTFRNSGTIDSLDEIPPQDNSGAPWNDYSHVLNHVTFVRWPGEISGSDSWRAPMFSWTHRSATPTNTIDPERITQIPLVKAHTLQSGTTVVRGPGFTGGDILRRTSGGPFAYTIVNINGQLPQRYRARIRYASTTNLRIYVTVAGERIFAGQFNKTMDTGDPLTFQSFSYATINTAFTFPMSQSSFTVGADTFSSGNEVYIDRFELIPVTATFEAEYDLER

B1: C-type mannose receptor 2-like (C-MR2), His tag removed (natural protein)
chain: SELNTSKSNWFRPDYSYSERTGGWFKFHSVPATWEDARLQCYYEGAELVSPFNENIIQKMIMLMDVNEPYIFTGIHSTFSKGVYTSVGGVPLHEMPVSLHSRDVSGNCVTMRSNGRVEARNCSSQYPYICFKKGPEHLTSSVCGADQEYKYEQRTGSCYKFHTLGRTWPQAFRVCVAEGGHLAIINSDVEADVIRGIFQNYPDDAFKADAKYAASIGFQGWGAVKIWWTIHGQTLQDAGYSKWDKFVPDMRSTRHYCGAVGRNGTLSHIECEGVTFPAICEKKADLV
modifications: Wild-type trypsin-activated core; the text prints neither the Cry1F subtype nor the limits. Cry1Fa assumed, with the conventional tryptic core 28-612.
Kd: 22.1 nM | koff: 0.0041 s⁻¹ | kon: 185000 M⁻¹ s⁻¹

B2: hemolymph lipopolysaccharide-binding protein (LBP), His tag removed (natural protein)
chain: QKRYRNDYVYDANTDAFYKFHVNMAVHWRALTICKLEGATLMVPTSVQQIAQVHGMFKQYPDIGHYVWIGDDNADHESAEETPIIDLQPEVETEAPWERRCLVLTRRGEIQTQNCRYYQSFVCMVEAKNAPYDHRCDVYAAGYEYNTDVKSCYKIPRDIKTWNAAYAECQAHGAHLVVVNSVTERDVLQALMSRTPYLRTSFSPYHYIAGIRATSVIGSEVVYRTIFNETLEEAGFSEWADNEPNNQQGIEYCGSLHQRSGKYNDISCLSSFGYICEKERNE
modifications: Wild-type trypsin-activated core; the text prints neither the Cry1F subtype nor the limits. Cry1Fa assumed, with the conventional tryptic core 28-612.
Kd: 119 nM | koff: 0.00294 s⁻¹ | kon: 24700 M⁻¹ s⁻¹

B3: C-type lectin lectoxin-Phi1-like (C-lectoxin), His tag removed (natural protein)
chain: DVPKDYIVNPNDSHGYKLMYHAKTWTEARDDCANVGAKLAVPKTRDQFEFIQKIVRSMQYQSIVGTEYKLLVWLGISNLKNYQVWANVDGENIEDTEFHTWAGQNGLKSENPAEPHCVGMDSMNFGLRDWWCHQRQPYICEILTVQNATQ
modifications: Wild-type trypsin-activated core; the text prints neither the Cry1F subtype nor the limits. Cry1Fa assumed, with the conventional tryptic core 28-612.
Kd: 46.6 nM | koff: 0.00513 s⁻¹ | kon: 110000 M⁻¹ s⁻¹

B4: CD63 antigen-like (CD63) tetraspanin, His tag removed (natural protein)
chain: KGNAEALVQKQLYETMQLYTHDVVVTRLWDEVQEDFSCCGVNNASDWLAPLGTANTDQGLPLSCCQFPFGTITVFNCTMATPAPTLRTEGCSTAFGAWVQSHAGS
modifications: Wild-type trypsin-activated core; the text prints neither the Cry1F subtype nor the limits. Cry1Fa assumed, with the conventional tryptic core 28-612.
Kd: 294 nM | koff: 0.00474 s⁻¹ | kon: 16100 M⁻¹ s⁻¹

Reference: article PMC9714555, “Hemocyte response to treatment of susceptible and resistant Asian corn borer (Ostrinia furnacalis) larvae with Cry1F toxin from Bacillus thuringiensis” (Frontiers in Immunology, 2022)
